From publication PMC4667285, “Octameric structure of Staphylococcus aureus enolase in complex with phosphoenolpyruvate” (Acta Crystallographica Section D: Biological Crystallography, 2015) come the findings set out here.

The target of series [1] is Sa_enolase Y135A mutant (Staphylococcus aureus) (UniProt Q2G028). Description: SEC. For orientation: In gel filtration, larger molecules generally elute earlier.
In series [2] the target is Sa_enolase D355A mutant (Staphylococcus aureus) (UniProt Q2G028). The series is described as follows: SEC.
Series [3] has as its target Staphylococcus aureus enolase, wild type (Staphylococcus aureus) (UniProt Q2G028). Description: crystal structure; PEP-bound Sa_enolase, 1.6 Å, space group I4, co-crystallised with 2-PG (1:10); 0.2 M ammonium acetate, 0.1 M Tris-HCl pH 8.5, 25% PEG 3350, 16°C.
Series [4] has the same target. Description: crystal structure; non-ligand-bound Sa_enolase, 2.45 Å, space group P42(1)2, a homodimer in the asymmetric unit, octamer by fourfold crystallographic symmetry; 0.01 M cobalt(II) chloride, 0.1 M MES pH 6.5, 1.8 M ammonium sulfate, 16°C.
For series [5], the target named is Sa_enolase G138A mutant (Staphylococcus aureus) (UniProt Q2G028). The series is described as follows: SEC.
The target of another series is T1, Sa_enolase (octamer) (Staphylococcus aureus, UniProt O69174).
T1 construct: gene eno; C-terminal hexahistidine tag, pET-24a, E. coli BL21(DE3); residues 1-434 described; octamer fraction separated from dimer by size-exclusion chromatography
The series is described as follows: isothermal titration calorimetry. The series is classed as binding. In general terms: Isothermal titration calorimetry measures the heat released or taken up as one component is titrated into another.

For series [6], the system named is O=C(O)[C@@H](CO)OP(=O)(O)O. The series is described as follows: purified protein. The settings on record: octamer, room temperature, 20 mM IMD–HCl, 400 mM KCl, 1 mM magnesium acetate pH 7.0.
In series [7] the target is Sa_enolase F139A mutant (Staphylococcus aureus) (UniProt Q2G028). Description: SEC.

In turn, “Sa_enolase Y135A mutant (from UniProt Q2G028) (enzyme)” yielded a stoichiometry N in series [1] of 2.

In series [2], “Sa_enolase D355A mutant (from UniProt Q2G028) (enzyme)” had a stoichiometry N of 2.

On to “Staphylococcus aureus enolase, wild type (from UniProt Q2G028) (enzyme)”, for which the stoichiometry N in series [3] and in series [4] was 8 each time. “Sa_enolase G138A mutant (from UniProt Q2G028) (enzyme)” gave a stoichiometry N in series [5] of 2. In the case of `O=C(O)[C@@H](CO)OP(=O)(O)O` [2-PG], the Kd at Sa_enolase (octamer) is 15 ± 2.6 µM. In the case of “Sa_enolase (octamer) (Staphylococcus aureus)”, in series [6], the Km is recorded as 0.365 ± 0.030 × 10^−3 M, the Vmax was 74.8 µM/min, the kcat worked out at 83 s⁻¹ and the kcat/Km is 227000 M⁻¹ s⁻¹. In turn, “Sa_enolase F139A mutant (from UniProt Q2G028) (enzyme)” registered a stoichiometry N in series [7] of 2.

The stoichiometry N is the number of molecules, sites or subunits per partner or assembly. As a reminder, the Kd is the free concentration of one partner at which half of the binding sites on the other are occupied at equilibrium, for simple one-to-one binding. Low values mean a tighter complex, high ones a looser complex. As usually defined, the Vmax is the rate approached at saturating substrate. As a reminder, the kcat is the maximal rate divided by the concentration of active sites. In general, kcat/Km refers to the turnover number divided by the Michaelis constant.
